The target of this test is Pgc ORF1, (His)6-tagged, 71-residue oligopeptide encoded by Drosophila polar granule component (pgc) ORF1 (Drosophila melanogaster). As to the kind of experiment: SEC; refolded (His)6-tagged Pgc ORF1 on a size-exclusion column; two species migrating at 18 kDa and 36 kDa; dimer to monomers; column and buffer not stated. (In general: SEC sorts molecules by how far they enter the pores of the column.)

The values below come from PMC2423479.

For the substance “Pgc ORF1, (His)6-tagged, 71-residue oligopeptide encoded by Drosophila polar granule component (pgc) ORF1 (natural protein)”, the stoichiometry N was found to be 2.

One may read the stoichiometry N as a count of units in the complex or per binding partner.
